Laboratory results as given in paper PMC10152144 (2026).

Target: Arp2/3 complex (Bos taurus, UniProt A7MB62)
Assay: single-filament microfluidics TIRF detachment assay

Binder | Kd [nM]
VCA motif VCA (protein) PSDGDHQVPTTAGNKAALLDQIREGAQLKKVEQNSRPVSCSGRDALLDQIRQGIQLKSVADGQESTPPTPAPTSGIVGALMEVMQKRSKAIHSSDEDEDEDDEEDFEDDDEWED | 560
GMF (protein) SDSLVVCEVDPELKETLRKFRFRKETNNAAIIMKVDKDRQMVVLEDELQNISPEELKLELPERQPRFVVYSYKYVHDDGRVSYPLCFIFSSPVGCKPEQQMMYAGSKNRLVQTAELTKVFEIRTTDDLTETWLKEKLAFFR | 70
